Earlier results, collected in article PMC2739727.

Assays:
[1] = target: IL-13Rα2 (Homo sapiens) (UniProt Q14627)
[2] = target: IL-13Rα1/IL-4Rα (Homo sapiens) (UniProt P78552)
Sequence of UniProt P78552 (P78552 22-343, chain 1 of 2): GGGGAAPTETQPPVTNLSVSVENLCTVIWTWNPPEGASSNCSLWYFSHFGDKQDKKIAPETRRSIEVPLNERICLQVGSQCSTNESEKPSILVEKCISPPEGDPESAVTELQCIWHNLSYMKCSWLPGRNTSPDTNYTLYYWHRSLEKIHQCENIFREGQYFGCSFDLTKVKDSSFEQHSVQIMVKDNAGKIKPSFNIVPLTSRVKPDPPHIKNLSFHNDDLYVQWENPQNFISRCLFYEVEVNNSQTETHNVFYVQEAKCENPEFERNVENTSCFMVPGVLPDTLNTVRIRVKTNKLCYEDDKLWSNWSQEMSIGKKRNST
Sequence of UniProt P78552 (P24394 26-232, chain 2 of 2, further chain): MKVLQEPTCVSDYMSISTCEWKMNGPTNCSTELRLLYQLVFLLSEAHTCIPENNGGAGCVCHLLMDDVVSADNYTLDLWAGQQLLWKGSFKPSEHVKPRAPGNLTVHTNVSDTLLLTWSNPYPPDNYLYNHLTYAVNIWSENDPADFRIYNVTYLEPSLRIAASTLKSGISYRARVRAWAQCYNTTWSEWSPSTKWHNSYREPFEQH

Sequence of UniProt Q14627 (Q14627 27-343): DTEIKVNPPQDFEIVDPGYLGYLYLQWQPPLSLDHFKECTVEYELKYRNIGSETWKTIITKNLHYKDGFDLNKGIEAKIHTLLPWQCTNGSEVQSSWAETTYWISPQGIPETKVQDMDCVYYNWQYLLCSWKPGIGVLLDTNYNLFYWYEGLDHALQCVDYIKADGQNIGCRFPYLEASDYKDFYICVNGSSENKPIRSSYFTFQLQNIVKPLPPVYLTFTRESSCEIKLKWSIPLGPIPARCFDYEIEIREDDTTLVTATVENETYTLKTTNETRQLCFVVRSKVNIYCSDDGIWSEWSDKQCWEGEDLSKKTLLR

- Kd [1]: 0.2 nM
- Kd [2]: 0.2 nM
Substance: IL-13 (from UniProt P35225)
